Experimental data taken from patent US20180291082A1 (IMMATICS BIOTECHNOLOGIES, published 2018).

Each binder was assayed against T1, HLA-A*03:01 (human) (assay: UV-ligand exchange, anti-b2m ELISA; exchange yield grade (+ >10%, ++ >20%, +++ >50, ++++ >75%)).
T1 construct: Peptide-receptive MHC monomer made by UV cleavage of a UV-sensitive peptide
From the text: (§1) Candidate peptides for T cell based therapies according to the present invention were further tested for their MHC binding capacity (affinity). The individual peptide-MHC complexes were produced by UV-ligand exchange, where a UV-sensitive peptide is cleaved upon UV-irradiation, and exchanged with the peptide of interest as analyzed. Only peptide candidates that can effectively bind and stabilize the peptide-receptive MHC molecules prevent dissociation of the MHC complexes. To determine the yield of the exchange reaction, an ELISA was performed based on the detection of the light chain (β2m) of stabilized MHC complexes. The assay was performed as generally described in Rodenko et al. (Rodenko et al., 2006).
(§2) 96 well MAXISorp plates (NUNC) were coated over night with 2 ug/ml streptavidin in PBS at room temperature, washed 4× and blocked for 1 h at 37° C. in 2% BSA containing blocking buffer. Refolded HLA-A*02:01/MLA-001 monomers served as standards, covering the range of 15-500 ng/ml. Peptide-MHC monomers of the UV-exchange reaction were diluted 100-fold in blocking buffer. Samples were incubated for 1 h at 37° C., washed four times, incubated with 2 ug/ml HRP conjugated anti-β2m for 1 h at 37° C., washed again and detected with TMB solution that is stopped with […]. Absorption was measured at 450 nm. Candidate peptides that show a high exchange yield (preferably higher than 50%, most preferred higher than 75%) are generally preferred for a generation and production of antibodies or fragments thereof, and/or T cell receptors or fragments thereof, as they show sufficient avidity to the MHC molecules and prevent dissociation of the MHC complexes.

peptide exchange yield	Binder
20 to 50%	IIAKKYFFK
20 to 50%	STTKLYLAK
20 to 50%	TVASLHTEK
50 to 75%	QLYSKFLLK
20 to 50%	RLSPNDQYK
20 to 50%	RMPPPLPTR
50 to 75%	ATMQSKLIQK
20 to 50%	GVIIAKKYFFK
20 to 50%	GSAALYLLR
20 to 50%	VLGPNGLLK
20 to 50%	ALDKPGKSK
20 to 50%	STKSTSPPK
20 to 50%	SSASLAHMK
20 to 50%	MLLQQPLIY
50 to 75%	KMAAWPFSR
20 to 50%	ALLGVIIAK
20 to 50%	KVLGPNGLLK
50 to 75%	KLFGTSGQK
50 to 75%	KSFDRHFEK
20 to 50%	STSHHLVSR
20 to 50%	KLYPTYSTK
50 to 75%	SAFGYVFPK

peptide exchange yield	Binder
10 to 20%	GSRLGKYYVK
20 to 50%	FSLAGALNAGFK
20 to 50%	KIIAPLVTR
20 to 50%	KTPSGALHRK
20 to 50%	QVPTFTIPK
20 to 50%	STNNEGNLK
20 to 50%	KLGNNPVSK
50 to 75%	ATWSASLKNK
50 to 75%	GSYSALLAKK
50 to 75%	SSYSRSSAVK
50 to 75%	RIYNGIGVSR
50 to 75%	KMMADYGIRK
50 to 75%	ATALSLSNK
20 to 50%	KIKEHVRSK
20 to 50%	ATYEGIQKK
50 to 75%	TAYGSTVSK
20 to 50%	AVATKFVNK
20 to 50%	GTESGTILK
20 to 50%	STQDTLLIK
50 to 75%	AVLDLGSLLAK
20 to 50%	ATAYGSTVSK
20 to 50%	SVKLQGTSK

The binders below were run against T2, HLA-B*44:02 (human) in the same assay as above.
T2 construct: Peptide-receptive MHC monomer made by UV cleavage of a UV-sensitive peptide
From the text: as §1, §2

peptide exchange yield	Binder
50 to 75%	MELLLVNKL
20 to 50%	EEFETLKEF
20 to 50%	REAEPIPKM
20 to 50%	EEAPLVTKAF
20 to 50%	AEKQTPDGRKY
20 to 50%	TEVLDSHIHAY
20 to 50%	HELENHSMY
20 to 50%	IEALLESSL
50 to 75%	DEYLIPQQGF
20 to 50%	EEKLIIQDF
50 to 75%	SENPETITY
10 to 20%	ARLTPIPFGL
> 75%	LEMPHYSTF
50 to 75%	KESDGFHRF
50 to 75%	TEHTQSQAAW
20 to 50%	AEIHTAEI
20 to 50%	AEKDGKLTDY
50 to 75%	AENLFRAFL
50 to 75%	EEESLLTSF
20 to 50%	EEVDVPIKLY
20 to 50%	DESEKTTKSF
